Results published in patent publication US20240368302A1 (NANOMAB TECHNOLOGY, published 2024).
Substitutions are numbered along the chain they refer to.

T1: human TROP2-Fc protein antigen (human, UniProt P09758 27-274)
T1 construct: extracellular domain; also called CRD + TY-1 + CPD; not shown: IgG Fc of the pFUSE-IgG plasmid
T1 sequence (looked up): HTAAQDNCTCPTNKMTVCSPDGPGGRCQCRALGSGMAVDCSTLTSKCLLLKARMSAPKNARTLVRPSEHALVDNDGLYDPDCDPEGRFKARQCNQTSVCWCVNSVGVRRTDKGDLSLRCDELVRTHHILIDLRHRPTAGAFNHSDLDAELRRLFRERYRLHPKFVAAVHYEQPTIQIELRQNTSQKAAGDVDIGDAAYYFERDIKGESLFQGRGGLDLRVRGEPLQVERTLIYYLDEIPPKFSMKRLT

T2: mouse TROP2-Fc antigen protein (mouse, UniProt Q8BGV3 25-270, limits assumed)
T2 construct: not shown: Fc
T2 sequence (looked up): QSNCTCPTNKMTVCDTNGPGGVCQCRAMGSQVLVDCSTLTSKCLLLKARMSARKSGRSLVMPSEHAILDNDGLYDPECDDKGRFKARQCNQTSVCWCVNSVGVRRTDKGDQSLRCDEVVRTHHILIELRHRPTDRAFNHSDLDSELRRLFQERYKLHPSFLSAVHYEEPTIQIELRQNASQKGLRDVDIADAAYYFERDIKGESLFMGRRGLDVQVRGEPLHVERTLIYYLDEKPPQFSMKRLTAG

T3: Fc antigen protein of human TROP2 domains TY-1 + CPD (human, UniProt P09758 70-274, limits assumed)
T3 construct: domain: TY-1 + CPD; not shown: Fc
T3 sequence (looked up): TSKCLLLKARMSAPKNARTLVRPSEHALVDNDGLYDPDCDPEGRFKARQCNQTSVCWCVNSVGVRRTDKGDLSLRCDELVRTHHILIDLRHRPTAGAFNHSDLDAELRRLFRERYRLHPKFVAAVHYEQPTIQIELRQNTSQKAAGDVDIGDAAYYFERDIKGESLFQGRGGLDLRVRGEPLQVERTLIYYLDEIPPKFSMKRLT

T4: rhesus monkey TROP2-Fc antigen protein (rhesus monkey, UniProt A0A5F8AGB8 27-274)
T4 construct: not shown: Fc
T4 sequence: T1 sequence (looked up) with M36V, S67N, I204V

T5: Fc antigen protein of human TROP2 domain CPD (human, UniProt P09758 146-274, limits assumed)
T5 construct: domain: CPD; not shown: Fc
T5 sequence (looked up): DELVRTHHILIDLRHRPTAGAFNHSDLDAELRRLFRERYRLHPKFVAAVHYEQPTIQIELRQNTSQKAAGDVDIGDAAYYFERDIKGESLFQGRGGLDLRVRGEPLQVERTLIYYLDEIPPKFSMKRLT

B1: MY1530-1-20 (VHH)
VHH: QVQLQESGGGSVLAGGSLRLSCTVSGSFVSSRSMAWFRQTPGKEREGVAAISQYGDPKYAGSVKGRFTMSRDNAKNTLLLQMNSLKPEDTAIYYCAAGEAWELATLSRSDYIYWGQGTQVTVSS
notes: Expressed in E. coli WK6 from vector pMECS, purified on a nickel column; also called MY1530-1-20 VHH; anti-TROP2 single domain antibody
B2: MY1530-4-28 (VHH)
VHH: QVQLQESGGGSVQAGGSLRLSCAASGFSVSTTWMHWVRQAPGKGLEWVSRIAINDHTFYAESVKGRFTMSTDNAKNTVYLQMTSLKPEDTAVYYCSPYSDYRIRGQGTQVTVSS
notes: Expressed in E. coli WK6 from vector pMECS, purified on a nickel column; also called MY1530-4-28 VHH; anti-TROP2 single domain antibody
B3: MY1530-5-17 (VHH)
VHH: QVQLQESGGGSVQPGGSLRLSCVVSGYTVSSVCMAWFRQAPGMERELVAGFYHSGGTYYGDSVKGRFTASQDNAKNTLYLQMNSLKPEDTATYYCARARYPSSACGTSPSNYNIWGQGTQVTVSS
notes: Expressed in E. coli WK6 from vector pMECS, purified on a nickel column; also called MY1530-5-17 VHH; anti-TROP2 single domain antibody
B4: MY1530-4-22 (VHH)
VHH: B3 VHH with P14A, R19K
notes: Expressed in E. coli WK6 from vector pMECS, purified on a nickel column; also called MY1530-4-22 VHH; anti-TROP2 single domain antibody
B5: MY1530-5-54 (VHH)
VHH: B3 VHH with V24A, V29A, M43K, F51Y
notes: Expressed in E. coli WK6 from vector pMECS, purified on a nickel column; also called MY1530-5-54 VHH; anti-TROP2 single domain antibody
B6: MY1530-6-1 (VHH)
VHH: QVQLQESGGGSVQAGGSLRLSCAASGFPYSSYSMGWFRQAPGKEREGVAAIYTGGGSTYYAGSVKGRFTISQEHATNTLYLQMNSLKPEDTAMYYCAANMVDNGVISGIQALGVRYYNYWGQGTQVTVSS
notes: Expressed in E. coli WK6 from vector pMECS, purified on a nickel column; also called MY1530-6-1 VHH; anti-TROP2 single domain antibody
B7: MY1530-1-26 (VHH)
VHH: QVQLQESGGGSVQAGGSLRLSCVVSGYTTTRYSMAWFRQAPGKEREGVAGIDTDVLTTYKPSVEGRFTISRDSAKRTLYLQMNSLKPEDTAMYYCATGTGNFLALDPVWYNTWGQGTQVTVSS
notes: Expressed in E. coli WK6 from vector pMECS, purified on a nickel column; also called MY1530-1-26 VHH; anti-TROP2 single domain antibody
B8: MY1530-2-53 (VHH)
VHH: QVQLQESGGGSVQAGGSLRLSCAVSGLTSSTTCMGWFRQAPGKEREGVAVIRSSGETTAADSVKGRFTISRDNAKNTLSLQMTSLKPEDTAMYYCAAAWPYSGCLLPLSSGDFTYWGQGTQVTVSS
notes: Expressed in E. coli WK6 from vector pMECS, purified on a nickel column; also called MY1530-2-53 VHH; anti-TROP2 single domain antibody

Biological target: T1, human TROP2-Fc protein antigen
Test: ELISA, coated human TROP2-Fc, Kd calculated from absorbance

Binder	Kd [nM]
B1	1.13
B2	1.2
B3	1.39
B4	1.29
B5	1.28
B6	1.51
B7	4.86
B8	4.23

Biological target: T2, mouse TROP2-Fc antigen protein
Test: ELISA, plate coated with mouse TROP2-Fc

Binder	binding result
B1	no binding
B2	no binding
B3	no binding
B4	no binding
B5	no binding
B6	no binding
B7	no binding
B8	no binding

Biological target: T3, Fc antigen protein of human TROP2 …
Test: ELISA, coated Fc protein of human TROP2 TY-1 + CPD, Kd calculated from absorbance
Description: (§1) The ELISA plates were coated with Fc antigen proteins of different human TROP2 domains overnight at 4° C. The plates were washed for 4 times with PBS-T the next day, added with 1% BSA, and blocked at room temperature for 2 hours. The plates were washed for 4 times with PBS-T, added with the anti-TROP2 single domain antibodies diluted in gradient, and standing at 37° C. for 1 hour. The plates were washed for 4 times with PBS-T, added with mouse anti-His-HRP antibody, and standing at 37° C. for 1 hour. The plates were washed for 4 times with PBS-T, added with TMB soluble substrate, and standing at room temperature for 10 minutes. […] The anti-TROP2 single domain antibodies of the present invention bind to different TROP2 domains.

Binder	Kd [nM]
B3	0.53
B4	0.53
B5	0.53
B6	2.14

Biological target: T1, human TROP2-Fc protein antigen
Test: SPR (Biacore 8K), human TROP2-Fc on CM-5 chip, VHH in flow
Description: The fixed phase human TROP2-Fc antigen proteins were fixed on the surface of CM-5 sensing chip using carboxyl amino reaction. The anti-TROP2 single domain antibodies were diluted with HBS buffer to different concentrations, and the anti-TROP2 single domain antibodies were added at a flow rate of 30 μl/min, binding for 90 seconds, dissociating for 600 seconds, and the binding process between the anti-TROP2 single domain antibody and the antigen was observed. After rinsing with 10 mM glycine solution for chip regeneration, the next anti TROP2 single domain antibody assay was proceeded.

Binder	Kd [nM]	koff [s⁻¹]	kon [M⁻¹ s⁻¹]
B1	0.35	0.000179	509000
B2	4.89	0.000717	147000
B3	0.27	0.00011	405000
B4	0.73	0.000187	257000
B5	0.2	8.99e-05	449000
B6	0.21	0.000227	1.09e+06
B7	1.89	0.00304	1.61e+06
B8	9.83	0.00443	451000

Biological target: T1, human TROP2-Fc protein antigen
Test: ELISA, coated Fc protein of human TROP2 CRD + TY-1 + CPD, Kd calculated from absorbance
Description: as §1

Binder	Kd [nM]
B1	1.13
B2	1.2
B3	1.39
B4	1.29
B5	1.28
B6	1.51
B7	4.86
B8	4.23

Biological target: T4, rhesus monkey TROP2-Fc antigen protein
Test: ELISA, coated rhesus monkey TROP2-Fc, Kd calculated from absorbance
Description: The ELISA plates were coated with TROP2-Fc antigen proteins from human, mouse, and rhesus monkey overnight at 4° C. The plates were washed for 4 times with PBS-T the next day, added with 1% BSA, and blocked at room temperature for 2 hours. The plates were washed for 4 times with PBS-T, added with the anti-TROP2 single domain antibodies diluted in gradient, and standing at 37° C. for 1 hour. The plates were washed for 4 times with PBS-T, added with mouse anti-His-HRP antibody, and standing at 37° C. for 1 hour. The plates were washed for 4 times with PBS-T, added with TMB soluble substrate, and standing at room temperature for 10 minutes.

Binder	Kd [nM]
B1	2.33
B2	1.38
B3	1.78
B4	1.67
B5	1.73
B6	4.47
B7	29.4
B8	28.1

Biological target: T5, Fc antigen protein of human TROP2 …
Test: ELISA, coated Fc protein of human TROP2 CPD, Kd calculated from absorbance
Description: as §1

Binder	Kd [nM]
B3	0.53
B4	1.02
B5	0.53
